Test results taken from patent publication US7625707B2, “Antibacterial agents and methods of identifying and utilizing same” (Ramot At Tel Aviv University Ltd., priority 2003, dated 2009).

B1: YefM: E. coli antitoxin polypeptide, 92 amino acids, SEQ ID NO: 76, natively unfolded (protein, listed as Escherichia coli)
chain: MNCTKEEIDMRTISYSEARQNLSATMMKAVEDHAPILITRQNGEACVLMSLEEYNSLEETAYLLRSPANARRLMDSIDSLKSGKGTEKDIIE
B2: YoeB: E. coli toxin polypeptide, SEQ ID NO: 77 (protein, listed as Escherichia coli)
chain: MKLIWSEESWDDYLYWQETDKRIVKKINELIKDTRRTPFEGKGKPEPLKHNLSGFWSRRITEEHRLVYAVTDDSLLIAACRYHY
B3: YefM and YoeB: toxin-antitoxin pair co-overexpressed in E. coli TOP10 from pBAD-yefMyoeB (protein, UniProt P69346 1-83; P69348 1-84, looked up)
Antitoxin YefM: MRTISYSEARQNLSATMMKAVEDHAPILITRQNGEACVLMSLEEYNSLEETAYLLRSPANARRLMDSIDSLKSGKGTEKDIIE
Toxin YoeB: B2 chain
B4: YoeB-His: YoeB toxin expressed in fusion to myc-epitope and his-tag (protein)
chain: B2 chain
modifications: left off: small tags and cut ends

Key:
[1] = target: T1, GST-YoeB fusion protein (Escherichia coli, UniProt P69348); test: Peptide array analysis of YefM tridecamer peptides probed with GST-YoeB; assay type: binding, E. coli
T1 construct: made in house; host or cells: E. coli BL21(DE3) pLysS
T1 sequence (P69348 1-84): B2 chain
Protocol: Peptide array analysis: Tridecamer peptides corresponding to consecutive overlapping sequences of the YefM polypeptide were arrayed on a cellulose membrane matrix and covalently bound to a Whatman 50 cellulose support (Whatman). Approximately 50 μg aliquots of soluble GST-YoeB fusion were examined for their selective peptide binding ability, on the basis of YefM-YoeB putative interaction.
For low stringency binding the cellulose membrane was briefly washed in 100% ethanol, washed three times with Tris-buffered saline (TBS; 50 mM Tris-HCl pH 7.5, 150 mM NaCl), then blocked for 4 hours using 5% (w/v) non-fat milk in TBS. The membrane was then washed three times in TBS+0.1% (v/v) tween 20 (TBS-T) and incubated with 10 ml GST-YoeB solution at 4° C. and slow shaking for 14 hours.
For high stringency binding the washing steps were extensive and multiple and the blocking solution washing step was reduced to a single brief wash.
Following incubation, the membrane was washed once in TBS-T then supplemented with 10 ml suspension comprising TBS, mouse anti-GST antibody and horseradish peroxidase conjugated goat anti-mouse antibody in the appropriate titers. Following 1 hour incubation at room temperature the membrane was briefly washed with TBS-T and TBS. Bound GST-YoeB proteins were detected through an enhanced chemiluminescence reaction following an exposure to a sensitive film.

[2] = boiled 10 minutes, supernatant (FIG. 4D)
[3] = system: E. coli TOP10; test: Growth rate analysis of bacteria overexpressing YefM, YoeB or both; settings: 0.2% L-arabinose induction compared with 0.2% glucose control, LB-Amp, 37° C.
Protocol: (§1) The generated constructs were introduced to E. coli strain TOP10.
Growth rate analysis: E. coli TOP10 bacteria transformed with pBAD-yefM, pBAD-yoeB, and pBAD-yefMyoeB were cultured in LB broth supplemented with 100 μg/ml ampicillin (LB-Amp) and incubated at 37° C. overnight. Following incubation, cultures were diluted in fresh LB-Amp and their optical density was adjusted to approximately 0.01 (A600). Each culture was then divided into two equal volumes. One volume was supplemented with 0.2% L-arabinose to induce expression of the target gene and the second volume was supplemented with 0.2% D-glucose to suppress expression. All cultures were incubated at 37° C. and 200 rpm for up to 9 hours. Cell density was estimated periodically by optical absorbance at 600 nm. The effect of target gene induction on bacterial growth during the logarithmic growth phase was determined as described above with the exception that cultures were divided and supplemented with 0.2% L-arabinose, or 0.2% D-glucose at the time they had reached optical density of approximately 0.45 (A600).

[4] = system: E. coli TOP10; test: Colony formation analysis of bacteria overexpressing YefM, YoeB or both; settings: L-arabinose 0.0005-0.2% on LB-Amp agar, 37° C., 20 hours
Protocol: as §1
Colony formation analysis: E. coli TOP10 bacteria harboring pBAD-yefM, pBAD-yoeB, or pBAD-yefMyoeB, were cultured in LB-Amp and incubated at 37° C. overnight Following incubation the cultures were diluted to an A600 of 0.01 in a fresh LB-Amp and incubated at 37° C. until an absorbance of 0.5 at A600 was reached. The cultures were then diluted in ten-fold dilutions steps and applied as 5 μl droplets on LB-Amp agar plates containing L-arabinose at a concentration gradient of 0.2%, 0.1%, 0.05%, 0.02%, 0.005% and 0.0005%. An LB-Amp agar plate containing 0.2% glucose was used as a negative control. All plates were incubated at 37° C. for at least 20 hours.

[5] = Thermal denaturation monitored by CD ellipticity at 222 nm; assay type: physicochemical; settings: PBS pH 7.3
Protocol: Circular Dichroism (CD): CD spectra were obtained by using an AVIV 202 spectrapolarimeter equipped with temperature-controlled sample holder and a 5 mm path length cuvette. Mean residual ellipticity, [θ], was calculated as, [θ]=[100×θ×m]/[c×L]
The identity of YefM and YoeB-His was verified using protein spots isolation from Coomassie blue stained gels and was accomplished by mass spectrometry, according to established protocols (Bandow, J. E., Becher, D., Buttner, K, Hochgrafe, F., Freiberg, C., Brotz, H. and Hecker, M. (2003) Proteomics. 3, 299-306). Briefly, protein spots were excised from stained gels and the gel pieces were treated trypsin solution (Pomega) for 16 h at 37° C. Peptides were extracted from gel onto a sample plate for MALDI-MS. Obtained peptides masses were determined in the positive ion reflector mode in a Voyager-DE STR mass spectrometer (Applied Biosystems). […] To determine the concentrations of YoeB-His and YefM polypeptides, tyrosine and tryptophan absorbance measurements in 0.1 M KOH were used. YefM concentration was calculated using the extinction coefficient of 2381 M^−1 cm^−1 at 293.2 nm for single tyrosine (4 tyr). YoeB-His concentration was calculated using extinction coefficient at 280 nm of 1507 M^−1 cm^−1 for single tyrosine (6 tyr) and 5377 M^−1 cm^−1 for single tryptophan (4 trp). […]

Molecule | growth of bacteria overexpressing the polypeptide [3] | bacterial colony formation on overexpression [4] | also measured
CC[C@H](C)[C@H](NC(=O)[C@@H](NC(=O)[C@@H](N)CCCNC(=N)N)[C@@H](C)O)C(=O)N[C@@H](CO)C(=O)N[C@@H](Cc1ccc(O)cc1)C(=O)N[C@@H](CO)C(=O)N[C@@H](CCC(=O)O)C(=O)N[C@@H](C)C(=O)N[C@@H](CCCNC(=N)N)C(=O)N[C@@H](CCC(N)=O)C(=O)N[C@@H](CC(N)=O)C(=O)N[C@@H](CC(C)C)C(=O)N[C@@H](CO)C(=O)O [YefM11-23] |  |  | binding of YoeB-GST to arrayed tridecamer peptide ([1]; high stringency, single amino-acid shift between peptides (FIG. 6B)): best binding; binding of YoeB-GST to arrayed tridecamer peptide ([1]; low stringency, two amino-acids shift between peptides (FIG. 6A)): positively identified
B1 | substantially reduced | inhibited | solubility during boiling [2]: extraordinary solubility
B2 | substantially reduced | inhibited | 
B3 | remained normal | unaffected | 
B4 |  |  | polypeptide melting point (TM) [5]: approximately 60 °C
